Measured values from patent publication US20170355771A1 (Biogen, published 2017).
Changes are numbered by the printed parent chain.

B1: humanized 34D10 Fab L0/H2 (Fab, V domains shown)
VH: EVQLVESGGGLVKPGGSLRLSCAASGFTFSAYAMSWVRQAPGKGLVWVASISSGGTTYYPDSVKRQFTISRDNAKNTLYLQMNSLRAEDTAVYYCTRGGDYGYALDYWGQGTLVTVSS
VL: EIVMTQSPATLSVSPGERATLSCRASSSVNYMYWYQQKPGQAPRLLIYYTSNLAPGIPARFSGSGSGTEFTLTISSLQSEDFAVYYCQQFSSSPWTFGQGTKVEIK
notes: Fab; also called VL0/VH2
B2: humanized 34D10 Fab L1/H3 (Fab, V domains shown)
VH: B1 VH with E6Q, G16E, V46E, Q66R
VL: B1 VL with M4L, I57V
notes: Fab; only variable domains are tied by name; also called VL1/VH3
B3: humanized 34D10 Fab L0/H5 (Fab, V domains shown)
VH: B1 VH with Q3K, V46E, Q66R, K75R
VL: B1 VL
notes: Fab; also called VL0/VH5
B4: mouse Fab (34D10) (Fab, V domains shown)
VH: EVKLVESGGGLVKPGGSLKLSCAASGFTFSAYAMSWVRQTPEKRLEWVASISSGGTTYYPDSVKRRFTISRDNARNILYLQMSSLRSEDTAMYYCTRGGDYGYALDYWGQGTSVTVSS
VL: ENVLTQSPAIMSASLGEKVTMSCRASSSVNYMYWYQQKSDASPKLWIYYTSNLAPGVPARFSGSGSGNSYSLTISSMEGEDAATYYCQQFSSSPWTFGGGTKLEIK
notes: Fab; also called mouse 34D10 Fab
B5: FVII-250/Fab-062 (other)
chain: ANAFLEELRPGSLERECKEEQCSFEEAREIFKDAERTKLFWISYSDGDQCASSPCQNGGSCKDQLQSYICFCLPAFEGRNCETHKDDQLICVNENGGCEQYCSDHTGTKRSCRCHEGYSLLADGVSCTPTVEYPCGKIPILEKRNASKPQGRIVGGKVCPKGECPWQVLLLVNGAQLCGGTLINTIWVVSAAHCFDKIKNWRNLIAVLGEHDLSEHDGDEQSRRVAQVIIPSTYVPGTTNHDIALLRLHQPVVLTDHVVPLCLPERTFSERTLAFVRFSLVSGWGQLLDRGATALELMVLNVPRLMTQDCLQQSRKVGDSPNITEYMFCAGYSDGSKDSCKGDSGGPHATHYRGTWYLTGIVSWGQGCATVGHFGVYTRVSQYIEWLQKLMRSEPRPGVLLRAPFPGGGGSGGGGSGGGGSGGGGSGGGGSGGGGSEIVMTQSPATLSVSPGERATLSCRASSSVNYMYWYQQKPGQAPRLLIYYTSNLAPGIPARFSGSGSGTEFTLTISSLQSEDFAVYYCQQFSSSPWTFGQGTKVEIKRTVAAPSVFIFPPSDEQLKSGTASVVCLLNNFYPREAKVQWKVDNALQSGNSQESVTEQDSKDSTYSLSSTLTLSKADYEKHKVYACEVTHQGLSSPVTKSFNRGEC
heavy: EGTSESATPESGPGSEPATSGSETPGTSESATPESGPGSEPATSGSETPGTSESATPESGPGTSTEPSEGSAPGSPAGSPTSTEEGTSESATPESGPGSEPATSGSETPGTSESATPESGPGSPAGSPTSTEEGSPAGSPTSTEEGTSTEPSEGSAPGTSESATPESGPGTSESATPESGPGTSESATPESGPGSEPATSGSETPGSEPATSGSETPGSPAGSPTSTEEGTSTEPSEGSAPGTSTEPSEGSAPGSEPATSGSETPGTSESATPESGPGTSTEPSEGSAPEVQLVESGGGLVKPGGSLRLSCAASGFTFSAYAMSWVRQAPGKGLVWVASISSGGTTYYPDSVKRQFTISRDNAKNTLYLQMNSLRAEDTAVYYCTRGGDYGYALDYWGQGTLVTVSSASTKGPSVFPLAPSSKSTSGGTAALGCLVKDYFPEPVTVSWNSGALTSGVHTFPAVLQSSGLYSLSSVVTVPSSSLGTQTYICNVNHKPSNTKVDKKVEPKSC
notes: also called Fab-250/Fab-062 (as printed once)
B6: affinity matured h34D10 Fab VH101/VL0 (Fab, V domains shown)
VH: B1 VH with K64E, G102S
VL: B1 VL
notes: Yeast-purified Fab
B7: affinity matured h34D10 Fab VH120/VL0 (Fab, V domains shown)
VH: B1 VH with K13E
VL: B1 VL
notes: Yeast-purified Fab
B8: affinity matured h34D10 Fab VH117/VL0 (Fab, V domains shown)
VH: B1 VH with V2A
VL: B1 VL
notes: Yeast-purified Fab
B9: affinity matured h34D10 Fab VH119/VL0 (Fab, V domains shown)
VH: B1 VH with E1G
VL: B1 VL
notes: Yeast-purified Fab
B10: affinity matured h34D10 Fab VH100/VL0 (Fab, V domains shown)
VH: B1 VH with S30G, G102S
VL: B1 VL
notes: Yeast-expressed, protein A purified, then made into Fab
B11: affinity matured h34D10 Fab VH104/VL0 (Fab, V domains shown)
VH: B1 VH with G102S, Q110R
VL: B1 VL
notes: Yeast-purified Fab
B12: affinity matured h34D10 Fab VH110/VL0 (Fab, V domains shown)
VH: B1 VH with S30N
VL: B1 VL
notes: Yeast-purified Fab
B13: affinity matured h34D10 Fab VH105/VL0 (Fab, V domains shown)
VH: B1 VH with G102S
VL: B1 VL
notes: Yeast-purified Fab
B14: affinity matured h34D10 Fab VH121/VL0 (Fab, V domains shown)
VH: B1 VH with K43E
VL: B1 VL
notes: Yeast-purified Fab
B15: affinity matured h34D10 Fab VH116/VL0 (Fab, V domains shown)
VH: B1 VH with N73D
VL: B1 VL
notes: Yeast-purified Fab
B16: affinity matured h34D10 Fab VH114/VL0 (Fab, V domains shown)
VH: B1 VH with V2M
VL: B1 VL
notes: Yeast-purified Fab
B17: affinity matured h34D10 Fab VH103/VL0 (Fab, V domains shown)
VH: B1 VH with M82V, G102S
VL: B1 VL
notes: Yeast-purified Fab
B18: affinity matured h34D10 Fab VH102/VL0 (Fab, V domains shown)
VH: B1 VH with G102S, S118F
VL: B1 VL
notes: Yeast-purified Fab
B19: affinity matured h34D10 Fab VH111/VL0 (Fab, V domains shown)
VH: B1 VH with S30N, K43E
VL: B1 VL
notes: Yeast-purified Fab
B20: affinity matured h34D10 Fab VH118/VL0 (Fab, V domains shown)
VH: B1 VH with E1G, T112A
VL: B1 VL
notes: Yeast-purified Fab
B21: affinity matured h34D10 Fab VH109/VL0 (Fab, V domains shown)
VH: B1 VH with Y58D
VL: B1 VL
notes: Yeast-purified Fab
B22: affinity matured h34D10 Fab VH108/VL0 (Fab, V domains shown)
VH: B1 VH with G54D, K75R, G102S
VL: B1 VL
notes: Yeast-purified Fab
B23: affinity matured h34D10 Fab VH115/VL0 (Fab, V domains shown)
VH: B1 VH with E1G, N73D
VL: B1 VL
notes: Yeast-purified Fab
B24: affinity matured h34D10 Fab VH107/VL0 (Fab, V domains shown)
VH: B1 VH with G16E, K43E, G102S
VL: B1 VL
notes: Yeast-purified Fab
B25: affinity matured h34D10 Fab VH106/VL0 (Fab, V domains shown)
VH: B1 VH with S7C, G102S
VL: B1 VL
notes: Yeast-purified Fab
B26: affinity matured h34D10 Fab VH113/VL0 (Fab, V domains shown)
VH: B1 VH with S50G
VL: B1 VL
notes: Yeast-purified Fab
B27: affinity matured h34D10 Fab VH112/VL0 (Fab, V domains shown)
VH: B1 VH with K43E, S50G
VL: B1 VL
notes: Yeast-purified Fab

Molecular target: T1, biotinylated human GPIIb/IIIa ectodomain protein (human, UniProt P08514 32-993; P05106 27-718, biotinylated (site not stated))
T1 construct: extracellular domain; also called purified GPIIb/IIIa
Assay: SPR, biotinylated GPIIb/IIIa ectodomain on streptavidin chip, Fab as analyte, 1:1 model

T1 sequence (P08514 32-993, chain 1 of 2): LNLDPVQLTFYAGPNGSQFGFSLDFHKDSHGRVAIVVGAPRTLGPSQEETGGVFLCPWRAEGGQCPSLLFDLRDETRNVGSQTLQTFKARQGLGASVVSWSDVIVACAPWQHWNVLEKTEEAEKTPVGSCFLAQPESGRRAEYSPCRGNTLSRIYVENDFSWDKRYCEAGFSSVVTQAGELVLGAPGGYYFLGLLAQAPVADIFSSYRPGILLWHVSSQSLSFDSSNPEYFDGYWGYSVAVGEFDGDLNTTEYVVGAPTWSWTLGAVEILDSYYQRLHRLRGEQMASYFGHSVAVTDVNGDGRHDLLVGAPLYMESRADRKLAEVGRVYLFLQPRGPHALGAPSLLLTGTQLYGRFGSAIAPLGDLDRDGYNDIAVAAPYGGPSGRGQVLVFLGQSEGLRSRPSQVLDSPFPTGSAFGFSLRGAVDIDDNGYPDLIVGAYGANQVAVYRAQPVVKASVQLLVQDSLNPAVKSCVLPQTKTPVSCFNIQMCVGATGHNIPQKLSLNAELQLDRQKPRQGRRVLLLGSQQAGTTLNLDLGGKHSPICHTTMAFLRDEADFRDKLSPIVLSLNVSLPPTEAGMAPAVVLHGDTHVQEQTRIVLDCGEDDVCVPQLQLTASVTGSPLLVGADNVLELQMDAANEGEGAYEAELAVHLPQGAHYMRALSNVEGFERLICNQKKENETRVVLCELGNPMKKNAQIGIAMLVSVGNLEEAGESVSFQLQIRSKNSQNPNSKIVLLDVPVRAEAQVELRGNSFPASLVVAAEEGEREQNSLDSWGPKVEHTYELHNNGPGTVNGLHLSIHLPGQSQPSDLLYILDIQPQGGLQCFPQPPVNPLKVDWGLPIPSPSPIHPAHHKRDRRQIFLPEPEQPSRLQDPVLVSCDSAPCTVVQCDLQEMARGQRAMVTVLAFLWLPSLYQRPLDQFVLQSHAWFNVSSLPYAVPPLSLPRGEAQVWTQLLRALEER
T1 sequence (P05106 27-718, chain 2 of 2): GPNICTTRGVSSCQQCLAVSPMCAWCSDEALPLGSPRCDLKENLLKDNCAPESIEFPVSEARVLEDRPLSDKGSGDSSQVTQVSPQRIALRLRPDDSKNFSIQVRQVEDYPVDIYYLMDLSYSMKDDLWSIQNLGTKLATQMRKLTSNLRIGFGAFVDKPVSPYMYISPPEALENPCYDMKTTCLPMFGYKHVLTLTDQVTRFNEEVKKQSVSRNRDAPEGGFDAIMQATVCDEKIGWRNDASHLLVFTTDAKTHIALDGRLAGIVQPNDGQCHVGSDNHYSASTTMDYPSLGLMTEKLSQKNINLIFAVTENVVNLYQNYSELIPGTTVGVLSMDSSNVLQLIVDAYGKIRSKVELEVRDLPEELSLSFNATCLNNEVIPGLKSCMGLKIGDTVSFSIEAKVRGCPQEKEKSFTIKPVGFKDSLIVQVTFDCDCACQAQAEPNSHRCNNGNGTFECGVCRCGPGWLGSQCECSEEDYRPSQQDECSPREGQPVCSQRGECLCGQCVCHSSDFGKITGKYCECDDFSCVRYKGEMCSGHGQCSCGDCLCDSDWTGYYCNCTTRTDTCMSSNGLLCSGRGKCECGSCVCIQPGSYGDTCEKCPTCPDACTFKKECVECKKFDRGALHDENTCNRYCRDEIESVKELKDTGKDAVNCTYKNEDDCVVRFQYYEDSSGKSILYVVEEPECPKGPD

| Binder | Kd |
| --- | --- |
| B1 | 2.8 nM |
| B2 | 110 nM |
| B3 | 5.3 nM |
| B4 | 2.8 nM |

Molecular target: T1, biotinylated human GPIIb/IIIa …
Assay: SPR, biotinylated GPIIb/IIIa ectodomain on streptavidin chip, fusion protein as analyte, 1:1 model
Source text: (§1) The GPIIb/IIIa ectodomain protein was immobilized on an SPR chip coated with streptavidin (GE Healthcare).

| Binder | Kd |
| --- | --- |
| B5 | 730 nM |

Molecular target: T2, GPIIb/IIIa (SEQ ID NOs: 23 and 24) (human, UniProt P08514 32-994; P05106 27-716)
T2 construct: also called GPIIb/IIIa complex
Assay: Bio-Layer Interferometry (OctetRed), monovalent format, yeast-purified Fab; apparent monovalent affinity
Procedure: (§2) BLI was performed on the OctetRed94 instrument, manufactured by ForteBio, according to standard procedures.

T2 sequence (P08514 32-994 limits assumed, chain 1 of 2): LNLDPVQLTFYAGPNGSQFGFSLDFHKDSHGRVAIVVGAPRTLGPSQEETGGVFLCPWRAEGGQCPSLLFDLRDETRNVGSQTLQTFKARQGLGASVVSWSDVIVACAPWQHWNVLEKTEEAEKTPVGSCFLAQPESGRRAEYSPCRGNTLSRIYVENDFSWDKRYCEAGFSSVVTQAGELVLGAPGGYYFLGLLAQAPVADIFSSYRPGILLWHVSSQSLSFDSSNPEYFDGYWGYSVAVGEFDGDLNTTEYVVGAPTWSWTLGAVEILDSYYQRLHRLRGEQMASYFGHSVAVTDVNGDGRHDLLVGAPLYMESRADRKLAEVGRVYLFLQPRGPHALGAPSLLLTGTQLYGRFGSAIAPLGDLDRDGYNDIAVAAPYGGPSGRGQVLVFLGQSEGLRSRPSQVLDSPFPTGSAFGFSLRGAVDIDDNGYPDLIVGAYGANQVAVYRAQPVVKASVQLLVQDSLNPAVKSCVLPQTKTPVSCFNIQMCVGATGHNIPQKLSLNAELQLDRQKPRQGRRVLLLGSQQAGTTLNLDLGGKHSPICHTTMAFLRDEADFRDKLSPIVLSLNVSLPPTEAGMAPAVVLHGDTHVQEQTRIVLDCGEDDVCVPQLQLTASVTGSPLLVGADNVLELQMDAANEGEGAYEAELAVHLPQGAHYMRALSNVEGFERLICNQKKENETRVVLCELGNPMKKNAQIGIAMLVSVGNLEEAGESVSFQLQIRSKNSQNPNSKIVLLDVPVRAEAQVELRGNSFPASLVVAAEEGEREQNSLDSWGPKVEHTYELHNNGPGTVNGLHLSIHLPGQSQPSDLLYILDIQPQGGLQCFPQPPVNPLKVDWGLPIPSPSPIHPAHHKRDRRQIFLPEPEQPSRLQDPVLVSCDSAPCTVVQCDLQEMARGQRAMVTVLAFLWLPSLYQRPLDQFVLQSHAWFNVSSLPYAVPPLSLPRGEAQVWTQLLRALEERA
T2 sequence (P05106 27-716 limits assumed, chain 2 of 2): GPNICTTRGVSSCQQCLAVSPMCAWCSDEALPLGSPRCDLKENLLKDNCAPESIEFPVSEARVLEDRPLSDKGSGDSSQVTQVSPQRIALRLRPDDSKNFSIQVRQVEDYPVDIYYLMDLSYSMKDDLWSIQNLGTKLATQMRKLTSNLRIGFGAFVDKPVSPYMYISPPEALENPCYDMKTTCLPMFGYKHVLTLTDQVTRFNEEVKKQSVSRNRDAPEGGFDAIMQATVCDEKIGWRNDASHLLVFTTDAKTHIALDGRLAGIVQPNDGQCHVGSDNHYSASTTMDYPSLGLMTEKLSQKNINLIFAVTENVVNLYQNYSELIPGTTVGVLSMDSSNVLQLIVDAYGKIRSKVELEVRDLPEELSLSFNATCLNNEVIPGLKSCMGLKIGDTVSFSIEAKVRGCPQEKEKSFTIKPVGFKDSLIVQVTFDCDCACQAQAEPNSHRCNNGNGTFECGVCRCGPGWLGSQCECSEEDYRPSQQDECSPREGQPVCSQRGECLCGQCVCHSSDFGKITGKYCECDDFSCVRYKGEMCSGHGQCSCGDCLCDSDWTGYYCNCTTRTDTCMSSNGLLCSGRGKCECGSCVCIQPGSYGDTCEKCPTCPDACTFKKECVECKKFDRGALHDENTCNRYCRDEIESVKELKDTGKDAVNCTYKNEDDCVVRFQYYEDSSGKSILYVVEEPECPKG

| Binder | Kd |
| --- | --- |
| B1 | 155 nM |
| B6 | 25 nM |
| B7 | 240 nM |
| B8 | 160 nM |
| B9 | 140 nM |
| B10 | 29 nM |
| B11 | 31 nM |
| B12 | 130 nM |
| B13 | 42 nM |
| B14 | 230 nM |
| B15 | 130 nM |
| B16 | 130 nM |
| B17 | 37 nM |
| B18 | 36 nM |
| B19 | 150 nM |
| B20 | 200 nM |
| B21 | 120 nM |
| B22 | 49 nM |
| B23 | 120 nM |
| B24 | 48 nM |
| B25 | 44 nM |
| B26 | 160 nM |
| B27 | 160 nM |

Molecular target: T2, GPIIb/IIIa (SEQ ID NOs: 23 and 24)
Assay: Bio-Layer Interferometry (OctetRed), monovalent format, yeast-purified Fab; apparent dissociation rate Kdis
Procedure: as §2

| Binder | koff |
| --- | --- |
| B1 | 0.0563 s⁻¹ |
| B6 | 0.00836 s⁻¹ |
| B7 | 0.0492 s⁻¹ |
| B8 | 0.0435 s⁻¹ |
| B9 | 0.0482 s⁻¹ |
| B10 | 0.00822 s⁻¹ |
| B11 | 0.0113 s⁻¹ |
| B12 | 0.0337 s⁻¹ |
| B13 | 0.0114 s⁻¹ |
| B14 | 0.0494 s⁻¹ |
| B15 | 0.0432 s⁻¹ |
| B16 | 0.0393 s⁻¹ |
| B17 | 0.0103 s⁻¹ |
| B18 | 0.00977 s⁻¹ |
| B19 | 0.0352 s⁻¹ |
| B20 | 0.0478 s⁻¹ |
| B21 | 0.031 s⁻¹ |
| B22 | 0.0193 s⁻¹ |
| B23 | 0.0429 s⁻¹ |
| B24 | 0.0142 s⁻¹ |
| B25 | 0.0127 s⁻¹ |
| B26 | 0.0372 s⁻¹ |
| B27 | 0.0352 s⁻¹ |

Molecular target: T1, biotinylated human GPIIb/IIIa …
Assay: surface plasmon resonance, biotinylated GPIIb/IIIa ectodomain on a streptavidin chip, analyte at 6.2 to 500 nM, 1:1 binding model
Source text: as §1

| Binder | koff | kon |
| --- | --- | --- |
| B5 | 0.0174 s⁻¹ | 23700 M⁻¹ s⁻¹ |
